For test [1], the target named is human ghrelin O-acyltransferase (hGOAT), FLAG-tagged, wild type (human) (UniProt Q96T53).
Test [2] deals with endogenous hGOAT of prostate cancer cells (human (endogenous in 22Rv1 and LNCaP)) (UniProt Q96T53). In words: confocal imaging of fluorescent ligand binding and uptake by cells.

As to “H-GS-Dap-Nal-1-LSPTK(SulfoCy5)-NH2 (ligand 15) (peptide)”, in test [1], the inhibition of hGOAT activity by ligand 15 is 17 nM. This substance also returned a percent of cells exhibiting ligand binding in test [2] of 100%.

For the origin of these results see paper doi:10.1101/2021.06.01.446150.
